Tested on: MS2 coat protein
Test: apparent KD of MS2 coat protein; designed switch direction (-1 OFF switch, 1 ON switch): -1; higher = weaker reporter binding
Outline: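 The reported apparent KD is a per-design median over clusters, from curve fits of normalised cluster fluorescence. Protein titrations used SNAP-549-labelled MS2 coat protein, doubled from 0.7 or 1.5 nM to 3 µM, in Tris-HCl pH 7.5 buffer with KCl, MgCl2, BSA, DTT, tRNA and Tween-20, with no input, 200 uM small-molecule ligand, or an oligonucleotide input. The RNA switches were transcribed on Illumina chips by stalled E. coli RNA polymerase.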

[1] = Eterna round: R95, input ligand: microRNA oligo, concentration not stated
[2] = input ligand: microRNA oligo, concentration not stated
[3] = Eterna round: R95, input ligand: FMN 200 uM
[4] = Eterna round: R95, input ligand: none

Row | Sequence | apparent KD of MS2 coat protein [1] [nM] | apparent KD of MS2 coat protein (input ligand: FMN 200 uM) [nM] | apparent KD of MS2 coat protein (input ligand: none) [nM] | apparent KD of MS2 coat protein [2] [nM] | apparent KD of MS2 coat protein [3] [nM] | apparent KD of MS2 coat protein [4] [nM]
1 | GGCUAGUGAGGAUAUACGUGCAGUCCUCAGUCGCCAGUCGGACAUGAGGAUCACCCAUGUAGAAGGUAUCGGCA [Beesraat] (puzzle: Exclusion 2) | 30.2 | – | – | – | – | –
2 | GGCUGACGCGGUAGGCCUUACAUGAGGAUCACCCAUGUCGAUGCCAUUCCAAAACACGGGUUUGAGGUUCGUCAUUG [Eternabot (L1) Solution 46] (Eterna round: R97, puzzle: Sensor, turn-off variant 1) | – | 99.7 | 100 | – | – | –
3 | GGGAAACAUGAGGAUCACCCAUGUCAGGAUAUCCGCUUUAAUUAAAUAAAUAAAUAAUGGAGAAGGGACAGCCC [-12.9, -10.5 kcal, 39% A] (Eterna round: R97, puzzle: Exclusion 1) | – | 33.6 | 33.7 | – | – | –
4 | GGGAACCGAGGAUAUCAGUACACGCACAUGAGGAUCACCCAUGUGCUCCUCGGUGCUGUCUGAGAAGGCGGUGAGA [Raonxe] (Eterna round: R97, puzzle: Exclusion 5) | – | 26.9 | 17.6 | – | – | –
5 | GGGAAGAACCAACAAGCAAACAUGAGGAUCACCCAUGUAGUAGGAGGAAGAAAGGUGAUUUAGAAAGCUCGACUUAU [AK-miRNA-r3-6] (Eterna round: R97, puzzle: Sensor, turn-off variant 1) | – | 159 | 202 | – | – | –
6 | GGGCCUCAUGUGAGGAUAUUGGAUGAGGUGCGAGACGAGAAGGCACAUGAGGAUCACCCAUGUAACUAACCAAA [Bimaen] (Eterna round: R97, puzzle: Brourd's mod of Exclusion 4) | – | 34.8 | 85 | – | – | –
7 | GGGCUCACGGUCAGGAUAUGUAAAACGUAAGUAUUAUAGAAGGGACAUGAGGAUCACCCAUGUGUGAUGAGCGC [Eternabot (L1) Solution 37] (Eterna round: R97, puzzle: Brourd's mod of Exclusion 4) | – | 323 | 124 | – | – | –
8 | GGGCUCGGUGUGAGGAUAUGCUCGGGUAAACUCGGGCAGAAGGCACAUGAGGAUCACCCAUGUAAGUCGGGCUC [-28.5, -27.4 kcal, A 23%, 4bis-4] (Eterna round: R97, puzzle: Brourd's mod of Exclusion 4) | – | 18.6 | 18 | – | – | –
9 | GGGCUGCGACACAGCCCAACAAAACAUGAGGAUCACCCAUGUCAGGAUAUACCGAUGCAGCAUCUGUAGAAGGGACAGAUCCAA [Usorxe] (Eterna round: R96, puzzle: Exclusion NG 3) | – | 120 | 66.3 | 88.1 | – | –
10 | GGGUGACAUGAGGAUCACCCAUGUCAGGAUAUGGGCCCGGGCCCGAAAGGGUUUGGGCCCAGAAGGGACUGCCC [-44.5, -43.5 kcal, 22%A (-3 GC series)] (Eterna round: R97, puzzle: Exclusion 1) | – | 145 | 50.3 | – | – | –
11 | GGUAACAUGAGGAUCACCCAUGUGAUACGUUACAUAUAAACCGAGGAUAUACCCUCAGAACGAGGGUAGAAGGUGGGACGACAC [Eternabot solution 8] (Eterna round: R96, puzzle: Exclusion NG 3) | – | 95.8 | 102 | 51.6 | – | –
12 | GGUACUAACACGAGAGUGUUAGUACUAUAAGCUUGUGUUACAUGAGGAUCACCCAUGUCCUCAUAAGCUCGUCUUAU [Mat - Sensor v3 - Turn-off var 2 - D76] (puzzle: Sensor v3, turn-off variant 2) | 89.6 | – | – | – | 137 | 156
13 | GGUACUAUCACCUGAGUGGUAGUGCAACAAGCUUGUGAUACAUGAGGAUCACCCAUGUCCUCAUUUGCUCGUCUUAU [JL-sv3-2.25 JL mod] (Eterna round: R96, puzzle: Sensor v3, turn-off variant 2) | – | 237 | 245 | 858 | – | –
14 | GGUACUAUCACCUGAGUGGUAGUGCAACAAGCUUGUGAUACAUGAGGAUCACCCAUGUCCUCAUUUGCUCGUCUUAU [JL-sv3-2.25 JL mod] (puzzle: Sensor v3, turn-off variant 2) | 1070 | – | – | – | 209 | 217
15 | GGUAGAGUGGUAGGAUAUCCGACUGAAACAGACGGAGAAGGACCACAGUCACUGGGUCCAAAUAUAAUAAACAAUAAAUCUACC [pwkr exNG1 F6.1] (Eterna round: R96, puzzle: Exclusion NG 1) | – | 307 | 331 | 212 | – | –
16 | GGUAUGCAGGCUUUAGGUAACAUGAGGAUCACCCAUGUAGCAGGUCGUAACCAGGUCAUUGGUUCUCAACGCUCGUU [Eternabot (L2) Solution 46] (Eterna round: R97, puzzle: Sensor, turn-off variant 1) | – | 31.4 | 34.4 | – | – | –
